Values quoted from earlier work in patent US20150072391A1, “ETHANOL PRODUCTION IN ENGINEERED YEAST” (Massachusetts Institute of Technology, priority 2013, published 2015).

Conditions: low viscosity CMC; cited from earlier work

B1: Cellulamonas fimi Eng (cenA): endoglucanase expressed in S. cerevisiae (protein, UniProt P07984 32-449, looked up)
Endoglucanase A: APGCRVDYAVTNQWPGGFGANVTITNLGDPVSSWKLDWTYTAGQRIQQLWNGTASTNGGQVSVTSLPWNGSIPTGGTASFGFNGSWAGSNPTPASFSLNGTTCTGTVPTTSPTPTPTPTTPTPTPTPTPTPTPTVTPQPTSGFYVDPTTQGYRAWQAASGTDKALLEKIALTPQAYWVGNWADASHAQAEVADYTGRAVAAGKTPMLVVYAIPGRDCGSHSGGGVSESEYARWVDTVAQGIKGNPIVILEPDALAQLGDCSGQGDRVGFLKYAAKSLTLKGARVYIDAGHAKWLSVDTPVNRLNQVGFEYAVGFALNTSNYQTTADSKAYGQQISQRLGGKKFVIDTSRNGNGSNGEWCNPRGRALGERPVAVNDGSGLDALLWVKLPGESDGACNGGPAAGQWWQEIALEMARNARW
activity measured per L culture broth: 293 U/L (low viscosity
